Positions count from the first letter of the chain named.

As a reminder, the Kd is the free concentration of one partner at which half of the binding sites on the other are occupied at equilibrium, for simple one-to-one binding. As usually defined, the EC50 (read off the curve) is the concentration at which the effect is half-maximal.

In test [1] the target is T1, hNPR1-ANP complex (human, UniProt P01160 124-151, limits assumed).
T1 construct: hNPR1 antigen in the presence of ANP; also called hNPR1 + 100 nM ANP
T1 sequence: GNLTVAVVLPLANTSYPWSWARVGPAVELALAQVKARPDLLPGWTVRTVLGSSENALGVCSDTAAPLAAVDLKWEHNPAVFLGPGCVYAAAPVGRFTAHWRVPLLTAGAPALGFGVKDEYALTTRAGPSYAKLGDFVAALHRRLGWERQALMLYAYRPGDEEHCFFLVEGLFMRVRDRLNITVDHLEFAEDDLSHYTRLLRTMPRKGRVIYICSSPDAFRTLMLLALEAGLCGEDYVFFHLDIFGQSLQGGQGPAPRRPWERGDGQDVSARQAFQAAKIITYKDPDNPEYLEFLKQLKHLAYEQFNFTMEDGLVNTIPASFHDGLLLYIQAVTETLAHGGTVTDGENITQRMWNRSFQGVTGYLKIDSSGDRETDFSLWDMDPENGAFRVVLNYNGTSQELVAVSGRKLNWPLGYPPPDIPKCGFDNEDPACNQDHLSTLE
T1 sequence (peptide): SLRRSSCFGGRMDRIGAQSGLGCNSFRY
Nature of the test: SET, FabCys.

For test [2], the target named is T2, human Natriuretic Peptide Receptor 1 (hNPR1) (human, UniProt P16066 33-473, limits assumed).
T2 construct: pannings used NPR1-hFc; also called NPR1-hFc
T2 sequence: T1 sequence
Kind of test: SET, FabCys.

The target of test [3] is T1, hNPR1-ANP complex. Kind of test: Octet, FabCys. A general note: In BLI a coated tip is dipped into the sample, and binding shifts an interference pattern.
The target in test [4] is T2, human Natriuretic Peptide Receptor 1 …. Nature of the test: Octet, FabCys.
Test [5] deals with T3, rat NPR1 (rNPR1) (rat, UniProt P18910 29-469, limits assumed).
T3 construct: Soluble antigen
T3 sequence: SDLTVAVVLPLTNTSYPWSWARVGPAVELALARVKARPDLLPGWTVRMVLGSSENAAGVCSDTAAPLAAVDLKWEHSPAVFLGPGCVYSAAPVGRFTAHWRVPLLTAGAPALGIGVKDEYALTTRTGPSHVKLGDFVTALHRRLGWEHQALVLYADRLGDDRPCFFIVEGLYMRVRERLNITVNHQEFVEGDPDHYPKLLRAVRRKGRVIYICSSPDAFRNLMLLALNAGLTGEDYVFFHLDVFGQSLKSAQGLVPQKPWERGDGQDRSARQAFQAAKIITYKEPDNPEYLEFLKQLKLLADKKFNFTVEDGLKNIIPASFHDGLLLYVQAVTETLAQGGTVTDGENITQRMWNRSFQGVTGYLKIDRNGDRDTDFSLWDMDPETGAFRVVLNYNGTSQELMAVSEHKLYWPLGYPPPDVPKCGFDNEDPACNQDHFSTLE
Kind of test: SET, FabCys.

In test [6] the target is T4, rNPR1-ANP complex (rat, UniProt P01160 124-151 (human entry), limits assumed).
T4 construct: rNPR1 antigen in the presence of ANP; also called rNPR1 + 100 nM ANP
T4 sequence: T3 sequence
T4 sequence (peptide): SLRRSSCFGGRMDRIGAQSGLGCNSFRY
Kind of test: SET, FabCys.

For test [7], the target named is T4, rNPR1-ANP complex. Kind of test: Octet, FabCys.
The target of test [8] is T1, hNPR1-ANP complex. Nature of the test: FabCys affinity determination.
Test [9] addresses T3, rat NPR1 (rNPR1). Nature of the test: FabCys affinity determination.
Test [10] deals with T4, rNPR1-ANP complex. Kind of test: FabCys affinity determination.
Test [11] deals with T5, human NPR1 on CHO-K1 cells in the presence of ANP (human, UniProt P01160 124-151).
T5 construct: also called hNPR1 CHO K1 + 100 nM ANP
T5 sequence: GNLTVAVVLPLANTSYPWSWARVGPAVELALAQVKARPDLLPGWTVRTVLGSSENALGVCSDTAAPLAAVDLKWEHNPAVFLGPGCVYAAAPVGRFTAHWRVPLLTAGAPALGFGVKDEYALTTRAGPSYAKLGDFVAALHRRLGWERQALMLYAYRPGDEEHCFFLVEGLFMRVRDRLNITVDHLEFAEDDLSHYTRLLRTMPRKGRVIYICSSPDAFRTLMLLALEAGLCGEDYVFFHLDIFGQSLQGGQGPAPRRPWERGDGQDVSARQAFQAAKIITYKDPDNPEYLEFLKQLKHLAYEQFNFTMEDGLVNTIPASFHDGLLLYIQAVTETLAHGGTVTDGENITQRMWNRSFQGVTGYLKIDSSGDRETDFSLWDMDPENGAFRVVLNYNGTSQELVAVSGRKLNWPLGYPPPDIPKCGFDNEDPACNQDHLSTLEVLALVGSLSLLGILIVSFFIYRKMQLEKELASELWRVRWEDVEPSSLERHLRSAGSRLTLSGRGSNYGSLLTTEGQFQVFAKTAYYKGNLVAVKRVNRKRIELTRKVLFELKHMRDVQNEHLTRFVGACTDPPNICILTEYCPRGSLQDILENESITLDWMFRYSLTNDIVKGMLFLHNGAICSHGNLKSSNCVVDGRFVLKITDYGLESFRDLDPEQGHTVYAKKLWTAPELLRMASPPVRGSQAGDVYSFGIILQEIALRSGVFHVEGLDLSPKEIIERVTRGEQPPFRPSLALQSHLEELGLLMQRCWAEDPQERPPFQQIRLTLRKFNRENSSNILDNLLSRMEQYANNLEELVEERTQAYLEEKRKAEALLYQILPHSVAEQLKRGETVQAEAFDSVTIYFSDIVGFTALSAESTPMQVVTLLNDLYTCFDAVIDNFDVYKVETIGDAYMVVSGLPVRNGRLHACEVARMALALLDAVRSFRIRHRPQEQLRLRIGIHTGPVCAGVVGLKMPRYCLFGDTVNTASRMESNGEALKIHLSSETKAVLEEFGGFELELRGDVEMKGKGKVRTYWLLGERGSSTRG
T5 sequence (peptide): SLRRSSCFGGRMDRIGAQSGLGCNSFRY
Nature of the test: flow cytometry, hNPR1 CHO-K1 cells, IgG. (In flow cytometry, cells or beads pass a laser one at a time.)

The target of test [12] is T6, human NPR1 on CHO-K1 cells (human, UniProt P16066 33-1061).
T6 construct: also called hNPR1 CHO K1; human NPR1 expressing CHO-K1 cells
T6 sequence: T5 sequence
Nature of the test: flow cytometry, hNPR1 CHO-K1 cells, IgG.

For test [13], the target named is constitutively active human NPR1 mutant (W74R) (human) (UniProt P16066). Kind of test: ELISA, 1 µM IgG. A general note: In an ELISA, binding on a coated surface is turned into a signal by an enzyme label.
Test [14] concerns the target W74R hNPR1 mutant in the presence of ANP (human) (UniProt P01160). Kind of test: ELISA, 1 µM IgG.
Test [15] deals with T7, human NPR3 (counter target) (human, UniProt P17342 27-481, limits assumed).
T7 construct: Pannings used hNPR3-hFc; also called hNPR3; hNPR3-hFc
T7 sequence (looked up): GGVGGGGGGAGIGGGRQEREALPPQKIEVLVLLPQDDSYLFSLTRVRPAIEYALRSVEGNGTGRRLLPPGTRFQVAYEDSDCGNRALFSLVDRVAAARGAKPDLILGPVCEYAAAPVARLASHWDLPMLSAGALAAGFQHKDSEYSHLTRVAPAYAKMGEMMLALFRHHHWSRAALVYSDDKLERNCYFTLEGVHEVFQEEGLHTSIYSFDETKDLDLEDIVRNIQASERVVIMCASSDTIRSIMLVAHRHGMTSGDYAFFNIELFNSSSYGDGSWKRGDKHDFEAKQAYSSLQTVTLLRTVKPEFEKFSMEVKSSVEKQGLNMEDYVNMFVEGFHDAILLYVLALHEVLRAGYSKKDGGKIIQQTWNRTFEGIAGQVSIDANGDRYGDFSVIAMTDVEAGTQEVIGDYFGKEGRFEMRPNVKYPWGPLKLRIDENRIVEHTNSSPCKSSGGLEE
Nature of the test: ELISA, 1 µM IgG. Details: unit not given here.

In test [16] the target is T1, hNPR1-ANP complex. Nature of the test: ELISA, 1 µM IgG. Also noted: unit not given here.
For test [17], the target named is T3, rat NPR1 (rNPR1). Nature of the test: ELISA, 1 µM IgG. Details: unit not given here.
For test [18], the target named is T2, human Natriuretic Peptide Receptor 1 …. Kind of test: ELISA, 1 µM IgG. Also noted: unit not given here.
Test [19] concerns the target T8, human NPR3 in the presence of ANP (human, UniProt P17342 27-481; P01160 124-151, limits assumed).
T8 construct: also called hNPR3 + 100 nM ANP
T8 sequence (looked up): T7 sequence (looked up)
T8 sequence (peptide, looked up): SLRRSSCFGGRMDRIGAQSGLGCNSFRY
Nature of the test: ELISA, 1 µM IgG. Also noted: unit not given here.

Test [20] concerns the target T4, rNPR1-ANP complex. Nature of the test: ELISA, 1 µM IgG. Details: unit not given here.
In test [21] the target is constitutively active human NPR1 mutant (W74R) (human) (UniProt P16066). Nature of the test: ELISA, IgG titrated on coated antigen, fluorescence [Cont.].
The target of test [22] is T6, human NPR1 on CHO-K1 cells. Kind of test: cell-based or functional assay.

B1: ZZ15 (FabCys format) (Fab, V domains shown)
VH: EVQLLESGGGLVQPGGSLRLSCAASGFTFASYAITWVRQAPGKGLEWVSTISGSGVYTYYAESVKGRFTISRDNSKNTLYLQMNSLRAEDTAVYYCARPYLGDRRSYGFDHWGQGTLVTVSS
VL: QSALTQPASVSGSPGQSITISCTGTSSDVGSYNLVSWYQQHPGKAPKLMIYEGSKRPSGVSNRFSGSKSGNTASLTISGLQAEDEADYYCSSYGFHIVVVVFGGGTKLTVL
notes: Monovalent FabCys
As to B1, the Kd is 74 pM with hNPR1-ANP complex [1], 53 pM in test [2], 190 pM in the test with hNPR1-ANP complex [3] and 260 pM in [4].

B2: ZZ16 (FabCys format) (Fab, V domains shown)
VH: B1 VH with A30G, S31T, I34M, T50S, G53A, V56Y, T58A, Y59N, E62G
VL: B1 VL
notes: Monovalent FabCys
As to B2, the Kd stood at 34 pM with hNPR1-ANP complex [1]; 62000 pM with rat NPR1 (rNPR1) [5]; 40 pM in [2]; 51000 pM with rNPR1-ANP complex [6]; 110 pM with hNPR1-ANP complex [3]; 140 pM in [4].

B3: ZZ12 (FabCys format) (Fab, V domains shown)
VH: EVQLVESGGGLVQPGGSLRLSCAASGFSFSKYYLNWVRQAPGKGLEWVASIHQQAHEKKYVESVKGRFTISRDNAKNSLYLQMNSLRAEDTAVYYCARSLRRRSTEHAGFDVWGQGTLVTVSS
VL: DIQMTQSPSSLSASVGDRVTITCRASQGISNYLAWYQQKPGKVPKLLIYAASTLQSGVPSRFSGSGSGTDFTLTISSLQPEDVATYYCQQADKFPYTFGQGTKVEIK
notes: Monovalent FabCys
With B3, the Kd in the test with hNPR1-ANP complex [1] was 320 pM; in the test with rat NPR1 (rNPR1) [5], 2100 pM; in test [2], 6700 pM; with rNPR1-ANP complex [6], 1400 pM; in the test with hNPR1-ANP complex [3], 40 pM; with rNPR1-ANP complex [7] it was 100 pM.

B4: YY03 (FabCys format) (Fab, V domains shown)
VH: EVQLLESGGGLVQPGGSLRLSCAASGFTFSSYAISWVRQAPGKGLEWVSAISGSGGSTYYAESVKGRFTISRDNSKNTLYLQMNSLRAEDTAVYYCARESGYVYYLKFDYWGQGTLVTVSS
VL: DIQMTQSPSSLSASVGDRVTITCRASQSISSYLNWYQQKPGKAPKLLIYAASSLQSGVPSRFSGSGSGTDFTLTISSLQPEDFATYYCQQHVRVPITFGQGTKVEIK
notes: Monovalent FabCys
Turning to B4, the Kd with hNPR1-ANP complex [8], with rat NPR1 (rNPR1) [9] and with rNPR1-ANP complex [10] was 100 pM in each case.

B5: YY05 (IgG format) (antibody, V domains shown)
VH: EVQLVQSGAEVKKPGESLKISCKGSGYSFTSYWISWVRQMPGKGLEWMGIIYPGTSYTRYSPSFQGQVTISADKSISTAYLQWSSLKASDTAMYYCARGAVAGQLGFDHWGQGTLVTVSS
VL: QSVLTQPPSVSGAPGQRVTISCTGSSSNIGAGYDVHWYQQLPGTAPKLLIYGNSNRPSGVPDRFSGSKSGTSASLAITGLQAEDEADYYCQSYYTSSHGPVFGGGTKLTVLG
notes: also called YY05_LALA
In the case of B5, the “flow cytometry S/BG at 1 µM IgG” value was 5 S/BG in test [11] and 15 S/BG in test [12]. Moreover, the ELISA binding at 1 µM IgG in [13] came out at 69; in test [14] it was 23; in [15] it was 7; with hNPR1-ANP complex [16], 32; with rat NPR1 (rNPR1) [17], 11; in test [18] it was 81. The figures for the ELISA binding at 1 µM IgG (in test [19]; in the test with rNPR1-ANP complex [20]) were 4 and 16, respectively. In [21], the EC50 (read off the curve) is 1000 pM. Moreover, the “cGMP conc [nM] at 1 µM IgG, +0.075 nM ANP” value in [22] amounted to 15 nM. For the same molecule, the “cGMP conc [nM] at 1 µM IgG, without ANP” value in [22] was 13 nM.
